Laboratory results published in the supplement of paper PMC9170038.

These sequences were tested on MS2 coat protein (assay: apparent KD of MS2 coat protein, switch OFF state (with FMN for OFF switches, without FMN for ON switches); designed switch direction (-1 OFF switch, 1 ON switch): -1; higher = weaker reporter binding). Conditions: FMN input: 0 or 200 uM; Eterna round: R93 (includes R88 designs).
Method in brief: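 Apparent KD per design is the median of normalised cluster binding-curve fits. Designed RNA switches transcribed on-chip from Illumina sequencing clusters were titrated with SNAP-549-labelled MS2 coat protein in twofold steps from 0.7 or 1.5 nM to 3 µM, with 0.8–1.5 h down to 10–20 min per step. Buffer: 100 mM Tris-HCl pH 7.5, 80 mM KCl, 4 mM MgCl2, without or with constant ligand.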
For “AAAAGUAGAGGAUAUACAUGAGGAUCACCCAUGUAGAAAGGAAGUGUAUAUAUGGCGUGUAGAAGGCUGCAUGA [Power strip]”, the “apparent KD of MS2 coat protein” value was 32.3 nM. “AAGAACGAAGGAUAUACAUGAGGAUCACCCAUGUAAAAGAAAGAAAAGGGAAAGAAAAGUAGAAGGUCGAAGAA [Banenre Merenptah]” was tested, and the “apparent KD of MS2 coat protein” value was 33.1 nM. With “CGGAGGAAAGGAUAUACACAAUAAAAGAAGUGAUCCUUGAGACAUGAGGAUCACCCAUGUAGAAGGUUCACUGA [Zaza]” the “apparent KD of MS2 coat protein” value was 15.9 nM. With “AAAAAACAUGAGGAUCACCCAUGUGAGGAUAUGCAAAACCCAAAUAAAAAGAGAAAAAGCAGAAGGCACAAAAA [wbt round 1 mod 2]” the “apparent KD of MS2 coat protein” value was 30.3 nM. In the case of “GUGUACAGAGGAUAUACAUAAGCAUGGAAACAUGCAAGAUCACAUGAGGAUCACCCAUGUAGAAGGCUGUACAC [Ex2: 738]”, the “apparent KD of MS2 coat protein” value is reported as 180 nM. “AAAAAGUCAGGAUAUGUACGAAAAAAUAAAAAAAUAAAAGUACAGAAGGGACAUGAGGAUCACCCAUGUCAGGG [EX4 393: Minimal 5]” was tested, and the “apparent KD of MS2 coat protein” value was 118 nM. In the case of “AACAAACAUGAGGAUCACCCAUGUCAGGAUAUGCAAACAACAAACAACAAACAACAAAGCAGAAGGGAUAGGAA [63%, Olong, 4]”, the “apparent KD of MS2 coat protein” value is reported as 21.2 nM. With “AACAGUACAGGAUAUACAUGAGGAUCACCCAUGUGGGAAAAAAGAUCGAGAGAUCAAUGUAGAAGGGUACUGGA [JL In the Red 03]” the “apparent KD of MS2 coat protein” value was 427 nM. With “AAGAAGGCAGGAUAUACAAAAUAAAAGAAAAGAAAGAAAGAACAUGAGGAUCACCCAUGUAGAAGGGUCAAGAA [Sankhenre Sewadjtu]” the “apparent KD of MS2 coat protein” value was 37.2 nM. With “CAGUACUGAGGAUAUACAUGAGGAUCACCCAUGUGAAAAAGCUACGAAAGUAGCAAAUGUAGAAGGCAGUACUG [Ex3: 806]” the “apparent KD of MS2 coat protein” value was 273 nM. “AAGGGACAUGAGGAUCACCCAUGUUAGGAUAUGCUAUGGAAAAUAAAAAUAAAACAUAGCAGAAGGAACAAAAA [Denovo 8]” was tested, and the “apparent KD of MS2 coat protein” value was 61.8 nM. With “AAAAAGUUAGGAUAUACAUGAGGAUCACCCAUGUGCACAUAUGGAGAAUAUGGUGGUAGUAGAAGGGACAAAAA [EX2 Malc#17]” the “apparent KD of MS2 coat protein” value was 69.7 nM. “AAAAAGGGAGGAUAUACAUGAGGAUCACCCAUGUAACAGACGAAAAAGAGUCUGAAAUGUAGAAGGCCCAAAAA [65%, Moding Exclusion3-cac2, 5]” was tested, and the “apparent KD of MS2 coat protein” value was 48.4 nM. “UGGGAGUCAGGAUAUACGAACAUGUCGCCAGAUGUCAAGGUACAUGAGGAUCACCCAUGUAGAAGGGAGGAGAA [salish99-Ex2-30(!)]” was tested, and the “apparent KD of MS2 coat protein” value was 56.6 nM. In the case of “AACUGACAUGAGGAUCACCCAUGUCAGGAUAUGCUUCUAGGAAAAAUAAAAACUAGAUGCAGAAGGGAUAUGGG [Design 38]”, the “apparent KD of MS2 coat protein” value is reported as 33.3 nM. With “AAAAAGUGAGGAUAUUCGGAUAGGAAAACGAAAACCUAUCCGAAGAAGGCACAUGAGGAUCACCCAUGUGAAAA [67% Ecls-II - Early G + late G segment 1]” the “apparent KD of MS2 coat protein” value was 24.1 nM. With “AAGUACUCAGGAUAUACAUGAGGAUCACCCAUGUGAUAAAAGCGUAAAAAACGCACAUGUAGAAGGGAGUACAA [JL In thr Red Again 2]” the “apparent KD of MS2 coat protein” value was 84 nM. For “AAAAAGGUAGGAUAUACAUGAGGAUCACCCAUGUAAAAAAAAACAGAAAAAAACAAAUGUAGAAGGGCCAAAAA [Ex3 Malc#5]”, the “apparent KD of MS2 coat protein” value was 35.6 nM. “AAGAUCAGAGGAUAUACAUAAGGUGAUGAAAACAUCGCCAAACAUGAGGAUCACCCAUGUAGAAGGCUGAUCAA [JL EX2 1]” was tested, and the “apparent KD of MS2 coat protein” value was 231 nM. For “AAAACGUGAGGAUAUGCACCAAAAAAGGUAUUUCGGGUACGACAUGAGGAUCACCCAUGUAGAAGGCACGAAAA [Frodo Flailing 13 - Jieux - Exclusion 2]”, the “apparent KD of MS2 coat protein” value was 19.8 nM. In the case of “GAGAUACAUGAGGAUCACCCAUGUGAGGAUAUCGGUUGGAGGAGGUGGAGGUUGAGUACGAGAAGGCACGGAUG [salish99-Ex1-10]”, the “apparent KD of MS2 coat protein” value is reported as 31.1 nM. In the case of “AAAAAACAUGAGGAUCACCCAUGUCAGGAUAUACAAAAUAAAAUAAAAAUAAAAUAAAGUAGAAGGGACAAAAA [May 8]”, the “apparent KD of MS2 coat protein” value is reported as 25.4 nM. With “AACAGUACAGGAUAUACAUGAGGAUCACCCAUGUGAGAGGAAUAAAACAAAAAUAAAAGUAGAAGGGUACUGGA [Ruby 45]” the “apparent KD of MS2 coat protein” value was 106 nM. In the case of “AGUUGGCGAGGAUAUACAUGAGGAUCACCCAUGUGAGAGAAAAAAGUGAGAAAGAAAAGUAGAAGGCGCUGACU [salish99-ex3-06]”, the “apparent KD of MS2 coat protein” value is reported as 307 nM. “AAAAAACAUGAGGAUCACCCAUGUAAGGAUAUACAAAACCCAUAUAAAAAGGGAAAAAGUAGAAGGUGCAAAAA [wbt round 1 mod 7]” was tested, and the “apparent KD of MS2 coat protein” value was 23.1 nM. In the case of “CUCUAGUGAGGAUAUCGAAGAAAAGAAGAGAAAGAAAAGAACGAGAAGGCACAUGAGGAUCACCCAUGUAAGAA [EteRNA is fun!]”, the “apparent KD of MS2 coat protein” value is reported as 49 nM. In the case of “AAAAAACAUGAGGAUCACCCAUGUGAGGAUAUGCUAUGGAAAAUAAAAAUAAAACAUAGCAGAAGGCACACCAA [Denovo 16]”, the “apparent KD of MS2 coat protein” value is reported as 37.4 nM. For “AUCAUGUAAGGAUAUGUAAGAAAAGAAAAGAAAGAAAAGAAACAGAAGGUACAUGAGGAUCACCCAUGUAAGAA [EteRNA is fun!]”, the “apparent KD of MS2 coat protein” value was 34.5 nM. With “AAGAACUGAGGAUAUACUAAAGAAAUGAAAAGAAAGAAAGAACAUGAGGAUCACCCAUGUAGAAGGCAGAAGAA [Ya'ammu Nubwoserre]” the “apparent KD of MS2 coat protein” value was 18 nM. “CUCAAGUUAGGAUAUGGAAGAAAAGAAGAGAAAGAAAAGAACCAGAAGGAACAUGAGGAUCACCCAUGUAAGAA [EteRNA is fun!]” was tested, and the “apparent KD of MS2 coat protein” value was 62.7 nM. In the case of “GAAGAACAUGAGGAUCACCCAUGUCAGGAUAUACAGAAGGGAAUAAUAUAACCUGGAAGUAGAAGGGACAAGAA [Ex 1 May 44]”, the “apparent KD of MS2 coat protein” value is reported as 65.4 nM. In the case of “AGGAAACAUGAGGAUCACCCAUGUGAGGAUAUUCAAAAGAAAAGAAAAGAAAGAAGAAGAAGAAGGUACAAGAA [Neferefre]”, the “apparent KD of MS2 coat protein” value is reported as 29.9 nM. In the case of “GAAAAACAUGAGGAUCACCCAUGUGAGGAUAUACGAAAGUAGAAGGCACUAAAAGAAAAGAGAAGGAGAAAAGA [Meechl Ex1 R2 m2]”, the “apparent KD of MS2 coat protein” value is reported as 38.8 nM. “AAGAAGUCAGGAUAUGCUGCUCGUCACGAAAGUGAUGAGUAGCAGAAGGGACAUGAGGAUCACCCAUGUAAAGA [Exclusion 4.1 (Exclusion4-cac2 - the real original)]” was tested, and the “apparent KD of MS2 coat protein” value was 66.6 nM. In the case of “GGGAAACAUGAGGAUCACCCAUGUGAGGAUAUGCUAUGGAAAAUAAAAAUAAAACAUAGCAGAAGGCAUAAAAA [Denovo 11]”, the “apparent KD of MS2 coat protein” value is reported as 37 nM. For “AAAAAACAUGAGGAUCACCCAUGUCAGGAUAUUCGAAAAAAAAAAAAAAAAAAAAAAAGGAGAAGGGACGAAAA [DR Excl. 1]”, the “apparent KD of MS2 coat protein” value was 56.8 nM. “GAAACUGGAGGAUAUACGAACAUGUCAAAAGACGUGAAGGGACAUGAGGAUCACCCAUGUAGAAGGCUAGAAAG [Mat - Exclusion 2 - JL mod - D99]” was tested, and the “apparent KD of MS2 coat protein” value was 22.4 nM. With “AAAACUCGAGGAUAUACGAACAUGUCAAAAGACGUGAAGGGACAUGAGGAUCACCCAUGUAGAAGGCGAGAAAA [Mat - Exclusion 2 - JL-Eli mod - D45]” the “apparent KD of MS2 coat protein” value was 123 nM. “AAAAAGGCAGGAUAUACAAAAAAAUUUUUAAAAAAAAAAAAACAUGAGGAUCACCCAUGUAGAAGGGCCAAAAA [Ex 2.1]” was tested, and the “apparent KD of MS2 coat protein” value was 43.3 nM. “ACGUACUGAGGAUAUACGAACAUGUCAAAAGACGUGAAGGGACAUGAGGAUCACCCAUGUAGAAGGCAGUACGA [Mat - Exclusion 2 - JL mod - D7]” was tested, and the “apparent KD of MS2 coat protein” value was 172 nM. In the case of “GACAUGCUAGGAUAUACAGGACAAAUUGGGCAUCCGCAUGGACAUGAGGAUCACCCAUGUAGAAGGAGUAGAAA [Inonmatixe]”, the “apparent KD of MS2 coat protein” value is reported as 798 nM. In the case of “AAGAACGUAGGAUAUACAUGAGGAUCACCCAUGUAAAAGAAAGAGGGAAAAGAGAAAAGUAGAAGGACGAAGAA [Cleopatra II]”, the “apparent KD of MS2 coat protein” value is reported as 38.2 nM. “CUCAAGUAAGGAUAUACAAGAAAAGAAGAGAAAGAAAAGAAGUAGAAGGUACAUGAGGAUCACCCAUGUAAGAA [EteRNA is fun!]” was tested, and the “apparent KD of MS2 coat protein” value was 22.2 nM. “AAAAAACAUGAGGAUCACCCAUGUAAGGAUAUGUGAAAAAAAAAAUAAAAAAAAAAAAACAGAAGGUACAAAAA [LROPPY Exclusion 1 - v02_deltaG=3.34]” was tested, and the “apparent KD of MS2 coat protein” value was 47.7 nM. For “CUCGUGUUAGGAUAUGGAUAGCCGUUUGACGAGCGAGGGCACUAGAAGGAACAUGAGGAUCACCCAUGUAAAAA [Velema]”, the “apparent KD of MS2 coat protein” value was 28.1 nM.
